By Kd is commonly meant the equilibrium constant for the complex coming apart. Lower therefore signals a tighter complex.

Positions count from the first letter of the chain named.

Test [1] deals with T1, macrocyclic peptide CP14, fluorescein-labeled (CP14^F) (N-terminal N-chloroacetyl-D-tyrosine joined by a thioether to a cysteine; fluorescein on the side chain of the C-terminal lysine; C-terminal amide). As to the kind of experiment: FP; outward-facing, Mg-ATP trapped, detergent-solubilized.
The target in test [2] is T2, macrocyclic peptide CP12, fluorescein-labeled (CP12^F) (N-terminal N-chloroacetyl-D-tyrosine joined by a thioether to a cysteine; fluorescein on the side chain of the C-terminal lysine; C-terminal amide). The description is as above.
Test [3] deals with T1, macrocyclic peptide CP14, …. As to the kind of experiment: FP; inward-facing, no Mg-ATP, detergent-solubilized.
The target of test [4] is T2, macrocyclic peptide CP12, …. The test is described as above.

B1: TmrA^E523QB (catalytically reduced variant of TmrAB) (complex)
chain 1: MTEDTYSKAFDRALFARILRYVWPYRLQVVLALLFLLVVTLAAAATPLFFKWAIDLALVPTEPRPLAERFHLLLWISLGFLAVRAVHFAATYGETYLIQWVGQRVLFDLRSDLFAKLMRLHPGFYDRNPVGRLMTRVTSDVDAINQFITGGLVGVIADLFTLVGLLGFMLFLSPKLTLVVLLVAPVLLAVTTWVRLGMRSAYREMRLRLARVNAALQENLSGVETIQLFVKEREREEKFDRLNRDLFRAWVEIIRWFALFFPVVGFLGDFAVASLVYYGGGEVVRGAVSLGLLVAFVDYTRQLFQPLQDLSDKFNLFQGAMASAERIFGVLDTEEELKDPEDPTPIRGFRGEVEFRDVWLAYTPKGVEPTEKDWVLKGVSFRVRPGEKVALVGATGAGKTSVVSLIARFYDPQRGCVFLDGVDVRRYRQEELRRHVGIVLQEPFLFSGTVLDNLRLFDPSVPPERVEEVARFLGAHEFILRLPKGYQTVLGERGAGLSTGEKQLLALVRALLASPDILLILDQATASVDSETEKRLQEALYKAMEGRTSLIIAHRLSTIRHVDRILVFRKGRLVEEGSHEELLAKGGYYAALYRLQFQEA
chain 2: MTGRSAAPLLRRLWPYVGRYRWRYLWAVLAGLVSIFFFVLTPYFLRLAVDAVQAGRGFGVYALAIVASAALSGLLSYAMRRLAVVASRQVEYDLRRDLLHHLLTLDRDFYHKHRVGDLMNRLNTDLSAVREMVGPGILMGSRLSFLVLLAFLSMYAVNARLAFYLTLILPGIFLAMRFLLRLIDRRYREAQEVFDRISTLAQEAFSGIRVVKGYALERRMVAWFQDLNRLYVEKSLALARVEGPLHALLGFLMGFAFLTVLWAGGAMVVRGELSVGELVQFNAYLAQLTWPILGLGWVMALYQRGLTSLRRLFELLDEKPAIRDEDPLPLALEDLSGEVRFEGVGLKRDGRWLLRGLTLTIPEGMTLGITGRTGSGKSLLAALVPRLLDPSEGRVYVGGHEARRIPLAVLRKAVGVAPQEPFLFSETILENIAFGLDEVDRERVEWAARLAGIHEEILAFPKGYETVLGERGITLSGGQRQRVALARALAKRPKILILDDALSAVDAETEARILQGLKTVLGKQTTLLISHRTAALRHADWIIVLDGGRIVEEGTHESLLQAGGLYAEMDRLQKEVEA
Regarding B1, the Kd worked out at 50 nM in test [1] and 350 nM in test [2].

B2: TmrAB (heterodimeric ABC transport complex from Thermus thermophilus, wild type) (complex)
chain 1: B1 chain 1 with Q523E
chain 2: B1 chain 2
On to B2, for which the results for the Kd in test [3] and in test [4] were 100 nM and 140 nM, respectively.

(Values after PMC8116058 (2021).)
